Columns and labels:
[1] = target: 2339-CAR (CD8信号肽-2339(anti-MSLN)-CD8hinge-CD28TM-CD28IC-CD3z), expressed on T cells of MSLN_CAR-T products (batch BZDS202101001 for patient S0106; same sequence for S0304); experiment: flow cytometry, PE-mesothelin staining of S0106 CAR-T product, no serum
[2] = target: 2339-CAR (CD8信号肽-2339(anti-MSLN)-CD8hinge-CD28TM-CD28IC-CD3z), expressed on T cells of MSLN_CAR-T products (batch BZDS202101001 for patient S0106; same sequence for S0304); experiment: flow cytometry, PE-mesothelin staining of CAR-T product (table for S0304), no serum
[3] = target: 1444-CAR (CD8信号肽-(anti-MSLN)-CD8 hinge-CD28 TM-CD28IC-CD3z), expressed on the T cells of patient S0105's MSLN_CAR-T product, batch BZDS202012001; experiment: flow cytometry, PE-mesothelin staining of S0105 CAR-T product, no serum
1444-CAR (CD8信号肽-(anti-MSLN)-CD8 hinge-CD28 TM-CD28IC-CD3z), expressed on the T cells of patient S0105's MSLN_CAR-T product, batch BZDS202012001, sequence (chain, as listed by the source): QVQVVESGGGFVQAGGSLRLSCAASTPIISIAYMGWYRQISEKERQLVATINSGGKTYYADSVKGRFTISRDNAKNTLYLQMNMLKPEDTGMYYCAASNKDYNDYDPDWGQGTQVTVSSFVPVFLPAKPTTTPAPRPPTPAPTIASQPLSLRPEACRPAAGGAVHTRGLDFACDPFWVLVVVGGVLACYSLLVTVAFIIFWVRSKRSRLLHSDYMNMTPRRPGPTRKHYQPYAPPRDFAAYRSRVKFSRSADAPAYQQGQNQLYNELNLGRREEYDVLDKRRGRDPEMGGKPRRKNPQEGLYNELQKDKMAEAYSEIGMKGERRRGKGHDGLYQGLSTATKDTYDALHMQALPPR

2339-CAR (CD8信号肽-2339(anti-MSLN)-CD8hinge-CD28TM-CD28IC-CD3z), expressed on T cells of MSLN_CAR-T products (batch BZDS202101001 for patient S0106; same sequence for S0304), sequence (chain, as listed by the source limits assumed): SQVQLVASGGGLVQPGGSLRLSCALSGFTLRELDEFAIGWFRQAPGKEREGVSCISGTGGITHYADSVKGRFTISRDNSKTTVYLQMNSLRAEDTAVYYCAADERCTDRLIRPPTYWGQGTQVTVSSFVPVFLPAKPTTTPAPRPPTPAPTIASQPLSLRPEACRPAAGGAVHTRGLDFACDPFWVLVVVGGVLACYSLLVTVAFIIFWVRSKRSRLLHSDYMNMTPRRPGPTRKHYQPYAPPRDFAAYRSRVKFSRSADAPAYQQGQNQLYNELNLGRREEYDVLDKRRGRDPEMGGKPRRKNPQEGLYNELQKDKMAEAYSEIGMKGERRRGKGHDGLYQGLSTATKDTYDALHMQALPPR

**Q.** For “PE荧光标记的间皮素 (PE-labelled mesothelin, MSLN) (from UniProt Q13421 296-580) (ligand)”, which 阳性率 (percent of T cells stained by labelled mesothelin) [1] is on record?
**A.** 96.8%

**Q.** What about the 阳性率 (percent of T cells stained by labelled mesothelin) [2] of the same substance?
**A.** 96.8%

**Q.** And the 阳性率 (percent of T cells stained by labelled mesothelin) [3]?
**A.** 32.7%

Reference: patent CN116930475A
